Assay results as given in US20240358847A1 (Merck Sharp & Dohme, published 2024).
Blank lines part the entries; values can stand above or below the binder they belong to.

What was measured:
Human Trop2 [1] = biological target: T1, Human Trop2 (human, UniProt P09758 27-274, limits assumed); assay: SPR, TROP2 capture, pH 7.4, monovalent mode; KDapp
T1 construct: also called TROP2 protein; trophoblast cell-surface antigen 2
T1 sequence (looked up): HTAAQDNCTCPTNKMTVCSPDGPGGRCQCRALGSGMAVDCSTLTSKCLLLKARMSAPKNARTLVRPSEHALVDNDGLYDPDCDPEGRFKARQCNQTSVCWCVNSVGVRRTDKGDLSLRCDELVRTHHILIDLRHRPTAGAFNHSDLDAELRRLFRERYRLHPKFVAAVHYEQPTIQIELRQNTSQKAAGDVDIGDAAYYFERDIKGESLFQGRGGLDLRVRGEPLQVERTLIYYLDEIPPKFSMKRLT

Human Trop2 [2] = biological target: T1, Human Trop2; assay: SPR, binding to target
Human Trop2 [3] = biological target: T1, Human Trop2; assay: SPR, TROP2 capture, pH 7.4, bivalent mode; KDapp
[4] = biological target: T2, TROP2 on BxPC-3 and MDA-MB-231-KWL cells (human, UniProt P09758 27-323); assay: on-cell ELISA, BxPC-3 cells (TROP2 high); design: unit not given beside the values
T2 construct: whole, on cells
T2 sequence (looked up): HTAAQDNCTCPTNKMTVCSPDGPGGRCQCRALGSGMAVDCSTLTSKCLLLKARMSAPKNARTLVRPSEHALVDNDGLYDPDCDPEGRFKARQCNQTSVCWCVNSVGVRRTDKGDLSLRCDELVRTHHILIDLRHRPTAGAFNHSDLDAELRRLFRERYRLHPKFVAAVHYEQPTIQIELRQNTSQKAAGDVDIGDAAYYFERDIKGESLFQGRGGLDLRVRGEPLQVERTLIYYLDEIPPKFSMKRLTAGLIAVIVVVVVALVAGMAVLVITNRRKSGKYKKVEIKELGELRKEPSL
Procedure: (§1) Cells were plated in duplicate onto 96-well plates, and primary antibody was diluted in cell culture medium with a starting concentration of 30 μg/mL (200 nM) with a dilution factor of 1:5. […] Data was plotted and analyzed. EC50 ([…]) was measured along with area under the curve (AUC) for each cell line.

[5] = biological target: T2, TROP2 on BxPC-3 and MDA-MB-231-KWL cells; assay: on-cell ELISA, BxPC-3 vs MDA-MB-231-KWL cells
Procedure: as §1

[6] = biological target: T2, TROP2 on BxPC-3 and MDA-MB-231-KWL cells; assay: on-cell ELISA, MDA-MB-231-KWL cells (TROP2 low); design: unit not given beside the values
Procedure: as §1

Kd (Human Trop2 [1]): 1.1 nM
B1: αTROP2 Fab (Fab, V domains shown)
VH: QVQLQQSGSELKKPGASVKVSCKASGYTFTNYGMNWVKQAPGQGLKWMGWINTYTGEPTYTDDFKGRFAFSLDTSVSTAYLQISSLKADDTAVYFCARGGFGSSYWYFDVWGQGSLVTVSS
VL: DIQLTQSPSSLSASVGDRVSITCKASQDVSIAVAWYQQKPGKAPKLLIYSASYRYTGVPDRFSGSGSGTDFTLTISSLQPEDFAVYYCQQHYITPLTFGAGTKVEIK
notes: CH1 and kappa constant parts not specified

AUC (BxPC-3) [4]: 288
ΔAUC [5]: 193
AUC (MDA-MB-231-KWL) [6]: 95.1
B4: αTROP2 (HC:Sac) (LC:Sac-Y53D) (antibody, human IgG1, kappa)
heavy: not shown
light: DIQLTQSPSSLSASVGDRVSITCKASQDVSIAVAWYQQKPGKAPKLLIYSASDRYTGVPDRFSGSGSGTDFTLTISSLQPEDFAVYYCQQHYITPLTFGAGTKVEIKRTVAAPSVFIFPPSDEQLKSGTASVVCLLNNFYPREAKVQWKVDNALQSGNSQESVTEQDSKDSTYSLSSTLTLSKADYEKHKVYACEVTHQGLSSPVTKSFNRGEC

The remaining lines, values behind:

B2: αTROP2 (HC:BSM-YTE-S375C) (LC:BSM-Y53D) conjugated to MP-AA-PABC-MMAE (ADC 1) (antibody, human IgG1, kappa, V domains shown)
VH: QVQLLQSGSELKKPGASVKVSCKASGYTFTNYGMNWVRQAPGQGLKWMGWINTYTGEPTYTDDFKGRFSFSLDTSVSQAYLQISSLKAEDTAVYYCARGGFGSSYWYFDVWGQGTLVTVSS
VL: DIQLTQSPSSLSASVGDRVTITCKASQDVSIAVAWYQQKPGKAPKLLIYSASDRYTGVPSRFSGSGSGTDFTLTISSLQPEDFATYYCQQHYITPLTFGPGTKVEIKR
modifications: Cys at position 375 (Eu numbering) conjugated to MP-AA-PABC-MMAE; DAR 1.9
notes: Antibody-drug conjugate; also called αTROP2 (HC:BSM-YTE-S375C-MMAE) (LC:BSM-Y53D)
binding result (Human Trop2 [2]): binds

B3: αTROP2 (HC: Sac-S375C) (LC: Sac-Y53D) (antibody, human IgG1, kappa)
heavy: not shown
light: DIQLTQSPSSLSASVGDRVSITCKASQDVSIAVAWYQQKPGKAPKLLIYSASDRYTGVPDRFSGSGSGTDFTLTISSLQPEDFAVYYCQQHYITPLTFGAGTKVEIKRTVAAPSVFIFPPSDEQLKSGTASVVCLLNNFYPREAKVQWKVDNALQSGNSQESVTEQDSKDSTYSLSSTLTLSKADYEKHKVYACEVTHQGLSSPVTKSFNRGEC
Kd (Human Trop2 [3]): 6.9 nM
